According to publication PMC8092224:

Molecular target: H. pylori-bullfrog recombinant ferritin (ferritin nanoparticle) (bullfrog (Rana catesbeiana) | Helicobacter pylori)
Experiment: SEC; concentrated supernatant (100-kDa MWCO TFF) on Superdex 200 Increase 10/300 GL, degassed PBS, 0.4 ml/min; size from LMW/HMW calibration standards; self-assembly of the monomer into the nanoparticle

Question: With “H. pylori-bullfrog recombinant ferritin (ferritin nanoparticle)” as the substance, how does the stoichiometry N read?
Answer: 24
